Results as given in patent publication US20080058276A1, “ALZHEIMER'S DISEASE THERAPEUTICS BASED ON PIN-1 CATALYZED CONFORMATIONAL CHANGES IN PHOSPHORYLATED AMYLOID PRECURSOR PROTEIN” (CORNELL RESEARCH FOUNDATION, INC., priority 2006, published 2008).
Bridge positions count the residues as written; N and C are the ends. Square brackets hold non-standard residues; d marks the D form. Ends that are not written are not given here. pT = C[C@@H](OP(=O)(O)O)[C@H](N)C(=O)O; resin = not defined here

Assays:
Pin1 WW domain = target: T1, Pin1 WW domain (Homo sapiens, UniProt Q13526); experiment: Competitive GST-WW pulldown of 32P-AICD; assay type: binding; details: increasing amounts of phosphopeptide
T1 construct: made in house; host or cells: bacteria
T1 sequence (Q13526 5-39 limits assumed): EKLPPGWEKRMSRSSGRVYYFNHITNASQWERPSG
Description: For competitive binding assays, synthetic peptides, APPtide (EVDAAVp[…] (SEQ ID NO: 13), and its non-phosphorylated counterpart, were synthesized and purchased from Merck Co. The accuracy and purity were identified by mass spectroscopy. APPtide was dissolved in the binding buffer described in Lu et al., “A Function of WW Domains as Phosphoserine- or Phosphothreonine-binding Modules,” Science 283:1325-1328 (1999), which is hereby incorporated by reference in its entirety, and added into the GST pull down reaction for the competitive binding assay (Lu et al., “A Function of WW Domains as Phosphoserine- or Phosphothreonine-binding Modules,” Science 283:1325-1328 (1999), which is hereby incorporated by reference in its entirety).
To identify the Pin1-binding site in APP, alanine was substituted for Thr668, the only Thr/Ser-Pro motif in the APP intracellular domain (“AICD”). […] AICD, but not AICD^T668A, was phosphorylated by Cdc2 (Suzuki et al., “Cell Cycle-dependent Regulation of the Phosphorylation and Metabolism of the Alzheimer Amyloid Precursor Protein,” Embo J 13(5): 1114-22 (1994), which is hereby incorporated by reference in its entirety).

[1] = target: T2, pThr668-Pro motif in APP (21-residue phosphopeptide G659-Q679 of APP) (Homo sapiens, UniProt P05067); experiment: NMR (ROESY) analysis of Pin1-catalyzed cis/trans isomerization of the pThr668-Pro bond; assay type: biochemical
T2 construct: isomerization of the pThr668-Pro bond in a 21-residue phosphopeptide (G659-Q679 of APP); made in house; host or cells: peptide chemically synthesized; Pin1 recombinant (bacteria, as said in general terms)
Description: All experiments were recorded at 25° C. on a Varian Inova 600 MHz spectrometer with the ^1H carrier set on water. ROESY data sets were acquired with spectral widths of 6 kHz (8 kHz) in t1 (t2) and 640 (2048) complex data points, and were processed as described in Ramelot & Nicholson, “Phosphorylation-induced Structural Changes in the Amyloid Precursor Protein Cytoplasmic Tail Detected by NMR,” J Mol Biol 307(3):871-84 (2001), which is hereby incorporated by reference in its entirety. Peak intensities were obtained using Pipp (Garrett et al., “A Common-sense Approach to Peak-picking in 2-Dimensional, 3-Dimensional, and 4-Dimensional Spectra Using Automatic Computer-analysis of Contour Diagrams,” J Magn Reson 95:214-20 (1991), which is hereby incorporated by reference in its entirety), and curve fits and error analyses were performed using SigmaPlot (Systat Software, Inc.). […] Ict/Icc=kct^cat[exp(kextm)−1]/[ktc^catexp(kextm)+kct^cat] Itc/Itt=ktc^cat[exp(kextm)−1]/[kct^catexp(kextm)+ktc^cat] where kex=kct^cat+ktc^cat, and tm corresponds to the ROESY mixing time. The desired rate constants were extracted by recording ROESY spectra with different mixing times and fitting the intensity ratios obtained to the above equations. ^15N—^1H HSQC data sets were acquired with spectral widths of 1.4 kHz (10 kHz) in t1 (t2) and 512 (2048) complex data points, and were processed as described in Ramelot & Nicholson, “Phosphorylation-induced Structural Changes in the Amyloid Precursor Protein Cytoplasmic Tail Detected by NMR,” J Mol Biol 307(3):871-84 (2001), which is hereby incorporated by reference in its entirety.
In the ROESY spectrum, the intensities of exchange and diagonal peaks for a two-state isomerization reaction explicitly depend on the forward (“kct^cat”) and backward (“ktc^cat”) rate constants (FIG. 5B), and on the mixing time (“tm”).

CHO-APP cells = experiment: Total Aβ secretion (ELISA) after Pin1 overexpression in CHO-APP cells; assay type: cell-based, Chinese hamster; details: asynchronous or mitotic cells
CHO cells = experiment: Total Aβ secretion (ELISA) after co-transfection of Pin1 and APP751 in CHO cells; assay type: cell-based, Chinese hamster; details: Pin1 overexpression with APP751, asynchronous or mitotic cells
APP = target: T3, APP (Homo sapiens, UniProt P05067, T743A); experiment: GST-Pin1 pulldown of APP and its mutants; assay type: binding; details: expressed in mitotic cells
T3 construct: expressed in transfected cells; host or cells: N18 neuroblastoma cells transfected with HA-APP (from APP/pCMV)

[2] = linear sequence; cited from earlier work
[3] = NMR (2D 1H-1H TOCSY and 1D 31P) determination of cis and trans populations of phosphopeptide; assay type: physicochemical; details: pThr-Pro bond, NMR on reaction mixture
Excerpt: The cis conformation of the pThr-Pro motif in AICD is unique from the trans isomer in that it is stabilized by different hydrogen bonds, and it is more extended in backbone conformation, aside from the kink of the cis peptide bond (Ramelot & Nicholson, “Phosphorylation-induced Structural Changes in the Amyloid Precursor Protein Cytoplasmic Tail Detected by NMR,” J Mol Biol 307(3):871-84 (2001), which is hereby incorporated by reference in its entirety). It was hypothesized that the cis conformation could be stabilized by formation of a covalent bond between V667 NH and E670 COO— (hydrogen bonded in the NMR structure), thereby stabilizing the cis isomer relative to the trans. A 6-residue phosphopeptide corresponding to APP residues V667-R72 ([NH2]-V-pT-P-E-E-R-resin (SEQ ID NO: 1)) was commercially synthesized with an orthogonal blocking group on E4 (Tufts Core Facility), and sent on the resin. […] The spectra show two cis populations that most likely reflect different hydrogen bond geometries adopted in the cis isomer (Ramelot & Nicholson, “Phosphorylation-induced Structural Changes in the Amyloid Precursor Protein Cytoplasmic Tail Detected by NMR,” J Mol Biol 307(3):871-84 (2001), which is hereby incorporated by reference in its entirety).

WW domain of Pin1 = WW domain of Pin1 (Homo sapiens, UniProt Q13526); experiment: 15N-1H HSQC titration of {15N}-WW with peptide; assay type: binding; details: relative to linear pAICD
WW domain of Pin1, sequence (Q13526 5-39 limits assumed): as above
Description: The pThr668-Pro peptides were synthesized, purified, and analyzed as reported in (Ramelot & Nicholson, “Phosphorylation-induced Structural Changes in the Amyloid Precursor Protein Cytoplasmic Tail Detected by NMR,” J Mol Biol 307(3):871-84 (2001), which is hereby incorporated by reference in its entirety). […] For ^15N—^1H HSQC experiments, ^15N-E670-pT668 peptide was dissolved in the same buffer adjusted to pH 6.7, with subsequent addition of an equimolar amount of the WW domain (0.2 mM). All experiments were recorded at 25° C. on a Varian Inova 600 MHz spectrometer with the ^1H carrier set on water. ROESY data sets were acquired with spectral widths of 6 kHz (8 kHz) in t1 (t2) and 640 (2048) complex data points, and were processed as described in Ramelot & Nicholson, “Phosphorylation-induced Structural Changes in the Amyloid Precursor Protein Cytoplasmic Tail Detected by NMR,” J Mol Biol 307(3):871-84 (2001), which is hereby incorporated by reference in its entirety. […]
Natural abundance peptide (either the linear or cyclic pAICD peptide) was incrementally added to {^15N}-WW and peak shifts were monitored via ^15N—^1H HSQC spectra.

EVDAAVpTPEERHLS (SEQ ID NO: 13) (EVDAAV[pT]PEERHLS) [pThr668-containing APP peptide]
competition of 32P-AICD binding to GST-WW (Pin1 WW domain): effectively competed

Pin1: peptidyl-prolyl isomerase that specifically isomerizes pSer/Thr-Pro bonds; GenBank Accession No. U49070
difference between kct^cat and ktc^cat rates [1]: 10 fold
acceleration of pThr668-Pro isomerization rate over typical uncatalyzed isomerization rates for pThr-Pro peptides ([1]; 3 mM peptide, 0.05 mM Pin1, 25° C.): several orders of magnitude
ROESY exchange cross peaks (E670-HN cis/trans) ([1]; catalytic amount of enzyme, 60:1 peptide:enzyme): exchange cross peaks were observed
average lifetime of the cis isomeric state ([1]; in presence of Pin1): ~0.05 s
average lifetime of the trans isomeric state ([1]; in presence of Pin1): ~0.5 s
acceleration of isomerization of the phosphorylated Thr668-Pro motif in APP ([1]; visualized by NMR): over 1000 fold
Aβ secretion (CHO-APP cells): significantly reduced
Aβ secretion (CHO cells): significantly reduced
binding to APP^T668A mutant (APP): failed to bind

[NH2]-V-pT-P-E-E-R-resin (SEQ ID NO: 1) (H-V[pT]PEER-resin; not fully specified; printed as [NH2]-V-pT-P-E-E-R-resin; reading uncertain) [6-residue phosphopeptide, linear phosphopeptide corresponding to APP residues V667-R72]
cis conformation [2]: 10%
trans conformation [2]: 90%

cyclic pAICD: VpTPEER (SEQ ID NO: 1) phosphopeptide cyclized by covalent bond between V667 NH and E670 COO- (V[pT]PEER; lactam N-4)
cis population [3]: ~30%
trans population [3]: 70%
WW domain peak shifts upon saturation with peptide (WW domain of Pin1): smaller peak shifts
